Patent publication US20040265314A1 (Pfizer, published 2004)

Target: the molecule itself
Experiment: Western blot of conditioned media, reducing against non-reducing SDS-PAGE
Method: Samples were combined with 2× SDS sample buffer with β-mercapatoethanol and boiled for 2 minutes. After boiling, the samples were loaded onto either a 4-20% gradient gel or 6% SDS gel. Gels were then transferred to nitrocellulose using an Invitrogen blotting apparatus (Invitrogen, Carlsbad, Calif.) and transfer buffer as provided by Invitrogen (Invitrogen, Carlsbad, Calif.). Gels were transferred for 2 hours at 30V under constant current. Nitrocellulose blots were blocked in 5% non-fat dry milk for 1 hour at room temperature. The blots were incubated with 0.5 μg/mL peptide polyclonal antibody overnight at 4° C. After incubation with the primary antibody, the blots were washed 3 times for 10 minutes each in washing buffer (1% Triton×100 (v/v), 0.1% SDS (w/v) in PBS, calcium and magnesium free) and then incubated for 30 minutes with mouse anti rabbit IgG conjugated to horseradish peroxidase (Santa Cruz Biotech, Santa Cruz, Calif.). The blots were washed 3 times for 10 minutes each in wash buffer and developed with the chemiluminescence reagent, ECL. (Amersham, Piscataway, N.J.). The blots were exposed to Kodak film and developed using a film developer.
The conditioned media from both COS and HEK293 transfectants were analyzed by Western blot under reducing and non-reducing conditions to assess whether CLCA1 exists as a multimer in the secreted milieu. […]

B1: human CLCA1 (Calcium Activated Chloride Channel 1) (other)
chain: NSLIQLNNNGYEGIVVAIDPNVPEDETLIQQIKDMVTQASLYLFEATGKRFYFKNVAILIPETWKTKADYVRPKLETYKNADVLVAESTPPGNDEPYTEQMGNCGEKGERIHLTPDFIAGKKLAEYGPQGRAFVHEWAHLRWGVFDEYNNDEKFYLSNGRIQAVRCSAGITGTNVVKKCQGGSCYTKRCTFNKVTGLYEKGCEFVLQSRQTEKASIMFAQHVDSIVEFCTEQNHNKEAPNKQNQKCNLRSTWEVIRDSEDFKKTTPMTTQPPNPTFSLLQIGQRIVCLVLDKSGSMATGNRLNRLNQAGQLFLLQTVELGSWVGMVTFDSAAHVQSELIQINSGSDRDTLAKRLPAAASGGTSICSGLRSAFTVIRKKYPTDGSEIVLLTDGEDNTISGCFNEVKQSGAIIHTVALGPSAAQELEELSKMTGGLQTYASDQVQNNGLIDAFGALSSGNGAVSQRSIQLESKGLTLQNSQWMNGTVIVDSTVGKDTLFLITWTTQPPQILLWDPSGQKQGGFVVDKNTKMAYLQIPGIAKVGTWKYSLQASSQTLTLTVTSRASNATLPPITVTSKTNKDTSKFPSPLVVYANIRQGASPILRASVTALIESVNGKTVTLELLDNGAGADATKDDGVYSRYFTTYDTNGRYSVKVRALGGVNAARRRVIPQQSGALYIPGWIENDEIQWNPPRPEINKDDVQHKQVCFSRTSSGGSFVASDVPNAPIPDLFPPGQITDLKAEIHGGSLINLTWTAPGDDYDHGTAHKYIIRISTSILDLRDKFNESLQVNTTALIPKEANSEEVFLFKPENITFENGTDLFIAIQAVDKVDLKSEISNIARVSLFIPPQTPPETPSPDETSAPCPNIHINSTIPGIHILKIMWKWIGELQLSIA
notes: 914 amino acids; also called hCLCA1; soluble CLCA1
B1: binds.
